B1: LINE1-mini (parent)
chain: GGCAGAGCUCAACACAGCGUGGCAAAGUGGCUGUGGCUAGACUGCC

Variants of: B1
Experiment: self-cleavage, relative activity (ratio to wild type); higher = more cleavage; in vitro, sequencing; the parent is a self-cleaving ribozyme
Variant C13A A26U has a self-cleavage of 0.11.
With G35C U43C the self-cleavage was 0.12.
Work on G30C A41U yielded a self-cleavage of 0.73.
Variant U9G A16U has a self-cleavage of 0.14.
Work on G22C U32C yielded a self-cleavage of 0.11.
Variant C3U G35A has a self-cleavage of 0.22.
Work on A6G A14C yielded a self-cleavage of 0.14.
With G19U U32A the self-cleavage was 0.09.
A16U G35A showed a self-cleavage of 0.01.
With C8A G17C the self-cleavage was 0.22.
With C10A C13G the self-cleavage was 0.03.
In the case of C18U C37U, the self-cleavage is reported as 0.07.
G21U C37A gave a self-cleavage of 0.09.
Variant C3U G5C has a self-cleavage of 0.27.
In the case of C3U C8U, the self-cleavage is reported as 0.71.
G5A U43A showed a self-cleavage of 0.05.
G2A A14C showed a self-cleavage of 0.15.
A12G G44U showed a self-cleavage of 0.09.
G21U G22C showed a self-cleavage of 1.71.
In the case of G7C G19C, the self-cleavage is reported as 0.05.
Work on C10G C23G yielded a self-cleavage of 0.07.
Work on G21U C42U yielded a self-cleavage of 0.53.
In the case of G19A G35U, the self-cleavage is reported as 0.14.
Work on A24U C45U yielded a self-cleavage of 0.91.
Work on U9A G22U yielded a self-cleavage of 0.11.
C10G C45G gave a self-cleavage of 0.02.
In the case of A26C G44C, the self-cleavage is reported as 0.35.
With A12U G17U the self-cleavage was 0.09.
U28C G36C gave a self-cleavage of 0.28.
Variant G17C C45A has a self-cleavage of 0.16.
In the case of A4G G7C, the self-cleavage is reported as 0.15.
Variant A12C C18U has a self-cleavage of 0.04.
A6G G21C gave a self-cleavage of 0.13.
In the case of G5U G27C, the self-cleavage is reported as 0.05.
G2U A39G gave a self-cleavage of 0.04.
For U9G U34A, the self-cleavage was 0.04.
In the case of G1A U43A, the self-cleavage is reported as 0.05.
For A12C U38C, the self-cleavage was 0.04.
G35U C37G showed a self-cleavage of 0.05.
In the case of G27A G33U, the self-cleavage is reported as 0.17.
Variant U28A A39U has a self-cleavage of 0.39.
G1A U9G gave a self-cleavage of 0.22.
In the case of G21A G29A, the self-cleavage is reported as 1.
Work on C3G G33U yielded a self-cleavage of 0.2.
Variant A16C G44U has a self-cleavage of 0.07.
Work on A24C A41G yielded a self-cleavage of 0.25.
A6U A25G gave a self-cleavage of 0.47.
A4G C45G gave a self-cleavage of 0.37.
In the case of U28C G40C, the self-cleavage is reported as 0.2.
Work on C18A C42U yielded a self-cleavage of 0.13.
For A25U U28C, the self-cleavage was 1.19.
U9A A11G showed a self-cleavage of 0.03.
With G33C C46U the self-cleavage was 0.05.
For A6G A16C, the self-cleavage was 0.04.
In the case of C18G G36C, the self-cleavage is reported as 0.08.
A14C G29U gave a self-cleavage of 0.13.
For A11C U28G, the self-cleavage was 0.05.
C13U A39G gave a self-cleavage of 0.11.
C8A A25C showed a self-cleavage of 0.45.
Variant A11U G22U has a self-cleavage of 0.15.
G30A C42G showed a self-cleavage of 0.05.
For G17A A25C, the self-cleavage was 0.07.
With A6C U43C the self-cleavage was 0.08.
G5A G33A gave a self-cleavage of 0.1.
With C15G U32A the self-cleavage was 0.05.
With G19C G29A the self-cleavage was 0.92.
Work on A39U G40U yielded a self-cleavage of 0.14.
For C18A G33C, the self-cleavage was 0.04.
For G7U C45U, the self-cleavage was 0.12.
With G21A A41U the self-cleavage was 0.83.
U32C A41G gave a self-cleavage of 0.07.
For G2A G21A, the self-cleavage was 2.98.
Work on U9G G29C yielded a self-cleavage of 0.05.
Variant A11G G19A has a self-cleavage of 0.04.
Work on G22C G44U yielded a self-cleavage of 0.4.
Variant A24U G44C has a self-cleavage of 0.67.
A4C C46G showed a self-cleavage of 0.13.
Work on A12G G22U yielded a self-cleavage of 0.02.
G7C C15G showed a self-cleavage of 0.08.
For A12U A41C, the self-cleavage was 0.04.
C8U G22C showed a self-cleavage of 0.15.
Variant A14C G44U has a self-cleavage of 0.07.
Variant G7A G30U has a self-cleavage of 0.24.
